In assay [1] the target is T1, transferrin receptor 1 (TFRC) (human, UniProt P02786 1-760).
T1 construct: Endogenous protein in cell or membrane extracts used for co-IP
The assay can be described thus: co-IP with α-NMES1 from NMES1-KD 1833 cells, western blot for TFRC; weaker TFRC band, number is normalised to the lower input. For orientation: In western blotting, separated proteins are transferred to a membrane and probed.

Assay [2] concerns the target T1, transferrin receptor 1 (TFRC). The assay can be described thus: co-IP with α-NMES1 from Ctrl 1833 cells, western blot for TFRC; strong TFRC band.
In assay [3] the target is T2, recombinant human NMES1 protein (Normal Mucosa of Esophagus Specific 1) (human, UniProt Q9C002 1-83, limits assumed).
T2 construct: also called rhNMES1; recombinant NMES1 protein
The assay can be described thus: BLI (Octet), antibody on protein A biosensors, recombinant NMES1 0-900 nM, 1:1 fit. Here is the method: (§1) Binding constants (EC50) of a panel of monoclonal antibodies were estimated by titration ELISA and data is analyzed using the 4 parameter curve fitting with GraphPad Prism program (Table 5). […] All experiments were performed with shaking at 1,000 rpm. Background wavelength shifts were measured from reference biosensors that were loaded only with antibody with antigen. ForteBio's data analysis software was used to fit the data to a 1:1 binding model to extract an association rate and dissociation rate.

In assay [4] the target is T2, recombinant human NMES1 protein (Normal …). The assay can be described thus: titration ELISA, plate coated with recombinant NMES1 (1 µg/mL), anti-human IgG Fc HRP detection. Here is the method: as §1
Anti-human IgG Fc HRP-conjugated antibody was diluted 1:5000 and added at a volume of 100 μl per well for incubation at 37° C. for 1 hour. The plates were washed 3 times with PBST (0.05% Tween-20) between incubation steps. TMB substrate was added 100 μl per well for color development and 2 M H2504 was added 50 μl per well to stop the reaction. The absorbance at 450 nm was read by SpectraMax microplate reader. For EC50 determination, data points were plotted by GraphPad Prism8. EC50 values were calculated using a three-parameter nonlinear model.
On the technique in general: In an ELISA, binding on a coated surface is turned into a signal by an enzyme label.

Positions count from the first letter of the chain named.

One may read the Kd as a measure of binding affinity in units of concentration. Usually koff stands for the rate constant with which the complex falls apart. As usually defined, the kon is the second-order rate constant of association. In general, EC50 refers to the concentration giving half of the maximal effect.

T1 sequence (P02786 whole entry): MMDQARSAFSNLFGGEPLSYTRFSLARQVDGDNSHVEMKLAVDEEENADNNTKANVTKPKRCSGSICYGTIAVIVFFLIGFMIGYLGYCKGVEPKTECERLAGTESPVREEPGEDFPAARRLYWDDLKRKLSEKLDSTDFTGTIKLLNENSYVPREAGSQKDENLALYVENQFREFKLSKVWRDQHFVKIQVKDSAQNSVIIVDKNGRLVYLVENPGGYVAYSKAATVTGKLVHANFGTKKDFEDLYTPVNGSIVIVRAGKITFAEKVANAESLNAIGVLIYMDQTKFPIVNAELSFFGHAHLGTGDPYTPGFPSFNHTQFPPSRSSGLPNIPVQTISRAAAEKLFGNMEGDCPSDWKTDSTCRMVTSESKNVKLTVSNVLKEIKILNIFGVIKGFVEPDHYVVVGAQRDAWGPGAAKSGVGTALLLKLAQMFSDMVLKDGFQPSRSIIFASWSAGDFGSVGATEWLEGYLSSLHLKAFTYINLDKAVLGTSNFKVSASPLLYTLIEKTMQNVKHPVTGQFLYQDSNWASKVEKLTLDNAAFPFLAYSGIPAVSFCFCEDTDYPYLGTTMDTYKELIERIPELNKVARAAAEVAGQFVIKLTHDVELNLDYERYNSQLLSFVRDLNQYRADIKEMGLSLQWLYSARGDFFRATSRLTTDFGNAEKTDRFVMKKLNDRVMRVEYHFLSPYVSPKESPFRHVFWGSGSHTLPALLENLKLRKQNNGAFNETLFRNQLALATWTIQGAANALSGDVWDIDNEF

B1: NMES1, endogenous, in human breast cancer cells (BoM-1833) (ligand, UniProt Q9C002 1-83, looked up)
chain: MSFFQLLMKRKELIPLVVFMTVAAGGASSFAVYSLWKTDVILDRKKNPEPWETVDPTVPQKLITINQQWKPIEELQNVQRVTK
notes: Endogenous protein of the cells used for co-IP and for the cell assays; also called C15orf48
For B1, the “Fold (IP/Input), TFRC” value in assay [1] came out at 74.9 fold; in assay [2], 79.8 fold.

B2: NMES-5 anti-NMES1 monoclonal antibody (antibody, IgG1, V domains shown)
VH: QVQLVQSGAEVKKPGASVKVSCKASGYTFTSYGISWVRQAPGQGLEWMGWISAYNGNTNYAQKLQGRVTMTTDTSTSTAYMELRSLRSDDTAVYYCARATRGNAFDIWGQGTMVSVSS
VL: QSALTQPASVSGSPGQSITISCTGTSSDVGAYNYVSWYQQHPGKAPKLMIYDVSNRPSGVSNRFSGSKSGNTASLTISGLQAEDEADYYCSSYTRSTTVVFGGGTKVTVL
notes: also called NM-5; NMES1-5
For the molecule B2, in assay [3], the dissociation constant Kd was 27.9 nM, the koff turned out to be 0.00463 s⁻¹ and the kon was found to be 166000 M⁻¹ s⁻¹. In addition, in assay [4], the EC50 was 0.216 nM.

B3: NMES-6 anti-NMES1 monoclonal antibody (antibody, IgG1, V domains shown)
VH: B2 VH with T100V, R101G, G102Q, N103L, I107Y, M113L, S115T
VL: QSALNQPPSASGSPGQSVTISCTGTSSDVGGYNYVSWYQQHPGKAPKLMIYEVSKRPSGVPDRFSGSKSGNTASLTVSGLQAEDEADYYCSSYAGSNNLVFGGGTKVTVL
notes: also called NM-6; NMES1-6
For B3, in assay [3], the Kd was 19.5 nM, the koff was 0.00441 s⁻¹ and the association rate constant (kon) is 227000 M⁻¹ s⁻¹. Moreover, the EC50 in assay [4] stood at 2.39 nM.

B4: NMES-10 anti-NMES1 monoclonal antibody (antibody, IgG1, V domains shown)
VH: B2 VH with R101F, M113T, S115T
VL: QSALTQPASVSGSPGQSITISCTGTSSDVGGYNYVSWYQQHPGKAPKLMIYDVSNRPSGVSNRFSGSKSGNTASLTISGLQAEDEADYYCSSYTSSSTLVVFGGGTKVTVL
notes: also called NM-10; NMES1-10
As for B4, in assay [3], the equilibrium dissociation constant (Kd) is 89.9 nM, the koff was found to be 0.0131 s⁻¹ and the kon was found to be 146000 M⁻¹ s⁻¹. Also, the EC50 in assay [4] turned out to be 306 nM.

B5: NMES-3 anti-NMES1 monoclonal antibody (antibody, IgG1, V domains shown)
VH: EVQLLQSGGGVVRPGGSLRLSCAASGFTFDDYGMSWVRQAPGKGLEWVSGINWNGGSTGYADSVKGRFTISRDNAKNSLYLQMNSLRAEDTALYYCARASMVRGVYAFDIWGQGTMVIVSS
VL: DVQMTQSPSSLSASIGDRVTITCRASQSIGSYLNWYQQRPGKAPKLLIYSASSLQSGVPSRFSGSGSRSDFTLTIASLQPEDFATYYCQQSYSGPYTFGQGTKVDIK
notes: also called NM-3; NMES1-3
For the molecule B5, in assay [3], the Kd was determined as 56 nM, the koff turned out to be 0.00301 s⁻¹ and the on-rate constant (kon) stood at 53800 M⁻¹ s⁻¹. For the same molecule, the EC50 in assay [4] amounted to 40.6 nM.

B6: NMES-7 anti-NMES1 monoclonal antibody (antibody, IgG1, V domains shown)
VH: EVQLVQSGAEVKKPGASVKVSCKASGYTFNRDAISWVRQAPGQGLEWMGWISGYNGNTYYAHKVLGRATMTTDTSTNTAYMELRSLTSDDTAMYYCARVGLQPDTTMDHWGQGTLVTVSS
VL: DIQMTQSPSSLSASVGDRVTITCRASQDIRNDLAWYQQKPGKAPKLLIYTASSLQTGVPSRFSGSGSGTDFTLSISSLQPEDFATYYCLQDYKYPLTFGGGTKLEIK
notes: also called NM-7; NMES1-7
For the molecule B6, in assay [3], the equilibrium dissociation constant (Kd) turned out to be 39.8 nM, the koff is 0.00595 s⁻¹ and the kon is 150000 M⁻¹ s⁻¹. The 50% effective concentration (EC50) in assay [4] was 14.4 nM.

B7: NMES-1 anti-NMES1 monoclonal antibody (antibody, V domains shown)
VH: QVQLVQSGGGVVQPGRSLRLSCAASGFTFSSYAMHWVRQAPGKGLEWVAVISYDGSNKYYADSVKGRFTISRDNSKNTLYLQMNSLRAEDTAVYYCARLSRFGDESLKDPDYWGQGTLVTVSS
VL: DIVMTQSPLSLPVTLGQPASISCRSSQSLVHSDGNTYLNWFQQRPGQSPRRLIYKVSNRDSGVPDRFSGSGSGTDFTLKISRVEAEDVGVYYCMQGAHWPPTFGPGTKLEIK
notes: also called NM-1; NMES1-1
B7: in assay [3], the dissociation constant (Kd) was 15.5 nM, the koff turned out to be 0.00499 s⁻¹ and the on-rate (kon) was 323000 M⁻¹ s⁻¹. The EC50 in assay [4] was 2.98 nM.

B8: NMES-4 anti-NMES1 monoclonal antibody (antibody, IgG1, V domains shown)
VH: EVQLVQSGGEVKKPGSSVKVSCKASGGTFSTYAISWVRQAPGQGLEWMGGIIPIFGTTNYAQKFQGRVTITADRSTSTAYMELSSLRSEDTAVYYCARVSELGDYYAMDVWGQGTTVTVSS
VL: DIQMTQSPSSLSASVGDRVTITCRASQGIASALAWYQQKPGKAPKLLIYDASNLESGVPSRFSGSGSGTDFTLTISSLQPEDFATYYCQQAHSFPLTFGGGTKLEIK
notes: also called NM-4; NMES1-4
As to B8, in assay [3], the equilibrium dissociation constant (Kd) was found to be 17.1 nM, the koff amounted to 0.00382 s⁻¹ and the kon came out at 223000 M⁻¹ s⁻¹. For the same molecule, the EC50 in assay [4] turned out to be 4.37 nM.

The record behind these values is patent publication US20210371508A1 (University of Texas, published 2021).
